Assay results from PMC8419023 (Structure (London, England : 1993), 2021).
Read-outs that look alike come from different tables or passages of the source. One block for each binder: values may come before it. No end group written: not given here.

Experiments:
CDK2-cyclin A^173−432 [1] = target: T1, CDK2-cyclin A^173−432 (human, UniProt P24941 1-298; P20248 173-432); test: fluorescence polarisation
CDK2-cyclin A^173−432 [2] = target: T1, CDK2-cyclin A^173−432; test: ITC
CDK2-cyclin A^173−432 [3] = target: T1, CDK2-cyclin A^173−432; test: fluorescence polarisation; remark: listed apart in the source
CDK2-cyclin A^1−432 = CDK2-cyclin A^1−432 (human, UniProt P24941 1-298; P20248 1-432); test: pull-down
CDK2-cyclin A^173−432 [4] = target: T1, CDK2-cyclin A^173−432; test: fluorescence polarisation; remark: listed apart in the source

B1: Skp2^17−85 (domain or fragment)
chain: ATSFTWGWDSSKTSELLSGMGVSALEKEEPDSENIPQELLSNLGHPESPPRKRLKSKGSDKDFVIVRRP
- IC50 (CDK2-cyclin A^173−432 [1]): 5.1 µM
- Kd (CDK2-cyclin A^173−432 [2]): 0.496 µM
- IC50 (CDK2-cyclin A^173−432 [3]): 13.4 µM

B4: GST-Skp2^1−43 (domain or fragment)
chain: MHRKHLQEIPDLSSNVATSFTWGWDSSKTSELLSGMGVSALEK
- binding result (CDK2-cyclin A^1−432): binds

B6: GST-Skp2^1−94 (domain or fragment)
chain: MHRKHLQEIPDLSSNVATSFTWGWDSSKTSELLSGMGVSALEKEEPDSENIPQELLSNLGHPESPPRKRLKSKGSDKDFVIVRRPKLNRENFPG
- binding result (CDK2-cyclin A^1−432): binds

B8: GST-Skp2^1−64 (domain or fragment)
chain: MHRKHLQEIPDLSSNVATSFTWGWDSSKTSELLSGMGVSALEKEEPDSENIPQELLSNLGHPES
- binding result (CDK2-cyclin A^1−432): binds

Other lines, results leading:

- binding result (CDK2-cyclin A^1−432): binds
B2: GST-Skp2^1−74 (domain or fragment)
chain: MHRKHLQEIPDLSSNVATSFTWGWDSSKTSELLSGMGVSALEKEEPDSENIPQELLSNLGHPESPPRKRLKSKG

- Kd (CDK2-cyclin A^173−432 [4]): 2.1 µM
B3: FITC-p27^27−36 peptide (peptide)
peptide: SACRNLFGPV-NH2
modifications: not fully specified (N-terminus)

- binding result (CDK2-cyclin A^1−432): binds
B5: GST-Skp2^1−85 (domain or fragment)
chain: MHRKHLQEIPDLSSNVATSFTWGWDSSKTSELLSGMGVSALEKEEPDSENIPQELLSNLGHPESPPRKRLKSKGSDKDFVIVRRP

- binding result (CDK2-cyclin A^1−432): binds
B7: GST-Skp2^1−53 (domain or fragment)
chain: MHRKHLQEIPDLSSNVATSFTWGWDSSKTSELLSGMGVSALEKEEPDSENIPQ
